Results reported in paper PMC9715718.

How the values were obtained:
[1] = target: RhlR-ATTO488 (Pseudomonas aeruginosa) (UniProt P54292); experiment: MST; PqsE diluted 1:1 from 10 µM, RhlR-ATTO488 at 20 nM; 50 mM Tris pH 8.0, 300 mM NaCl, 5% glycerol, 50 µM mBTL, 0.05% Tween; 25 °C
[2] = target: PqsE (purified, affinity tag removed) (Pseudomonas aeruginosa) (UniProt P20581); experiment: SEC-MALS; Superdex 200 Increase column in SEC buffer, 40-150 µg of protein applied

Substance	Kd [1] [nM]	stoichiometry N (RhlR per PqsE (2:2 complex)) [2]
PqsE (purified, affinity tag removed) (from UniProt P20581) (enzyme)	146	
RhlR (untagged, co-expressed with His6-PqsE) (from UniProt P54292) (natural protein)		1
